In paper PMC5207208 (Science (New York, N.Y.), 2016):

Experiments:
Nup192 = Nup192 (Chaetomium thermophilum, UniProt G0S4T0 1-1756); test: SEC-MALS
Nup188 = Nup188 (Chaetomium thermophilum, UniProt G0SFH5 1-1858); test: SEC-MALS
Chain of Nup188 (G0SFH5 whole entry): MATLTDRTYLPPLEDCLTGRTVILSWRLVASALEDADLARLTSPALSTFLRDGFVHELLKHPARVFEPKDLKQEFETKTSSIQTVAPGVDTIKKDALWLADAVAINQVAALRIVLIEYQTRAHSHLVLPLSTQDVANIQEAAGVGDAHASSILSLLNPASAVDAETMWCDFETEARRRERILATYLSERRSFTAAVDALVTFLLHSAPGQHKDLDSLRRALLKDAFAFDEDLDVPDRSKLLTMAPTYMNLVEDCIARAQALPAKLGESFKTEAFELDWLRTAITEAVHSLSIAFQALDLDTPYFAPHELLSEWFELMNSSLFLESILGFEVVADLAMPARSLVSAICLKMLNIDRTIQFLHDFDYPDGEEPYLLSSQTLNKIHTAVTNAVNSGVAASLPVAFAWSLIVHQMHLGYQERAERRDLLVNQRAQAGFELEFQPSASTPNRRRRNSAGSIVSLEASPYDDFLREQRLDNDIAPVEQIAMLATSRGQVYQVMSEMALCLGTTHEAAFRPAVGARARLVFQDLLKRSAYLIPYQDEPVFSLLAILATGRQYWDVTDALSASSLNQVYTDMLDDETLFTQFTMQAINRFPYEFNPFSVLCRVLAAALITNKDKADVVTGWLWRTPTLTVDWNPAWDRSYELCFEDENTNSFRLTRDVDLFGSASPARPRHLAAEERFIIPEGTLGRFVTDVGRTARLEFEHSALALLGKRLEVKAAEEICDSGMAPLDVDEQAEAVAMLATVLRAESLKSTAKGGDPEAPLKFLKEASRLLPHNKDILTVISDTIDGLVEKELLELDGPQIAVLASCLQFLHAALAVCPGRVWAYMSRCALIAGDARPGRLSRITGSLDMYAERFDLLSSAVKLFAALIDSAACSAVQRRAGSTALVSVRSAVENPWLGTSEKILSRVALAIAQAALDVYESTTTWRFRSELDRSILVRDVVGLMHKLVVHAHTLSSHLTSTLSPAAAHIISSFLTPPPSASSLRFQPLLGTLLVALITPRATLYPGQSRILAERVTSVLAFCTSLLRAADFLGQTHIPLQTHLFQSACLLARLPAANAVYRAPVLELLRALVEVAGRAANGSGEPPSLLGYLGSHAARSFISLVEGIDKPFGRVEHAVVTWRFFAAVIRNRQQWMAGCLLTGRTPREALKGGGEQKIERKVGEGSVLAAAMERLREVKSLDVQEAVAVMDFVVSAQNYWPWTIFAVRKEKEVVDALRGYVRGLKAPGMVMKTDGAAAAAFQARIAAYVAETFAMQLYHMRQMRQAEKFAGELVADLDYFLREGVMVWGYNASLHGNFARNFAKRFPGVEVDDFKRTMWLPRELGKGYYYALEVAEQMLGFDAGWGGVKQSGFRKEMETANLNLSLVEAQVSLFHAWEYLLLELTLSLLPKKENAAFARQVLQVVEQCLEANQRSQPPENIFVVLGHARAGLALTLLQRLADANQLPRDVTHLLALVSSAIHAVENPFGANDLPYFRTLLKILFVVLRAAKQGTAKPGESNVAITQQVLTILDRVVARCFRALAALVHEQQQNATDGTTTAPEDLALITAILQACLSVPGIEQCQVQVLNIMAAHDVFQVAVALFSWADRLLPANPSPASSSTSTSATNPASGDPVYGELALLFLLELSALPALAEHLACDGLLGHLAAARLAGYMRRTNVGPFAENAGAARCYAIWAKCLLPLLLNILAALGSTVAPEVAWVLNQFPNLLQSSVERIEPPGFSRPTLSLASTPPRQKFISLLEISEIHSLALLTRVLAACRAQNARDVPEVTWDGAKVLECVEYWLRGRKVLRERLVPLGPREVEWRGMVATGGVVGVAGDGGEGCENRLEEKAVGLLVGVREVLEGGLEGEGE

Chain of Nup192 (G0S4T0 whole entry): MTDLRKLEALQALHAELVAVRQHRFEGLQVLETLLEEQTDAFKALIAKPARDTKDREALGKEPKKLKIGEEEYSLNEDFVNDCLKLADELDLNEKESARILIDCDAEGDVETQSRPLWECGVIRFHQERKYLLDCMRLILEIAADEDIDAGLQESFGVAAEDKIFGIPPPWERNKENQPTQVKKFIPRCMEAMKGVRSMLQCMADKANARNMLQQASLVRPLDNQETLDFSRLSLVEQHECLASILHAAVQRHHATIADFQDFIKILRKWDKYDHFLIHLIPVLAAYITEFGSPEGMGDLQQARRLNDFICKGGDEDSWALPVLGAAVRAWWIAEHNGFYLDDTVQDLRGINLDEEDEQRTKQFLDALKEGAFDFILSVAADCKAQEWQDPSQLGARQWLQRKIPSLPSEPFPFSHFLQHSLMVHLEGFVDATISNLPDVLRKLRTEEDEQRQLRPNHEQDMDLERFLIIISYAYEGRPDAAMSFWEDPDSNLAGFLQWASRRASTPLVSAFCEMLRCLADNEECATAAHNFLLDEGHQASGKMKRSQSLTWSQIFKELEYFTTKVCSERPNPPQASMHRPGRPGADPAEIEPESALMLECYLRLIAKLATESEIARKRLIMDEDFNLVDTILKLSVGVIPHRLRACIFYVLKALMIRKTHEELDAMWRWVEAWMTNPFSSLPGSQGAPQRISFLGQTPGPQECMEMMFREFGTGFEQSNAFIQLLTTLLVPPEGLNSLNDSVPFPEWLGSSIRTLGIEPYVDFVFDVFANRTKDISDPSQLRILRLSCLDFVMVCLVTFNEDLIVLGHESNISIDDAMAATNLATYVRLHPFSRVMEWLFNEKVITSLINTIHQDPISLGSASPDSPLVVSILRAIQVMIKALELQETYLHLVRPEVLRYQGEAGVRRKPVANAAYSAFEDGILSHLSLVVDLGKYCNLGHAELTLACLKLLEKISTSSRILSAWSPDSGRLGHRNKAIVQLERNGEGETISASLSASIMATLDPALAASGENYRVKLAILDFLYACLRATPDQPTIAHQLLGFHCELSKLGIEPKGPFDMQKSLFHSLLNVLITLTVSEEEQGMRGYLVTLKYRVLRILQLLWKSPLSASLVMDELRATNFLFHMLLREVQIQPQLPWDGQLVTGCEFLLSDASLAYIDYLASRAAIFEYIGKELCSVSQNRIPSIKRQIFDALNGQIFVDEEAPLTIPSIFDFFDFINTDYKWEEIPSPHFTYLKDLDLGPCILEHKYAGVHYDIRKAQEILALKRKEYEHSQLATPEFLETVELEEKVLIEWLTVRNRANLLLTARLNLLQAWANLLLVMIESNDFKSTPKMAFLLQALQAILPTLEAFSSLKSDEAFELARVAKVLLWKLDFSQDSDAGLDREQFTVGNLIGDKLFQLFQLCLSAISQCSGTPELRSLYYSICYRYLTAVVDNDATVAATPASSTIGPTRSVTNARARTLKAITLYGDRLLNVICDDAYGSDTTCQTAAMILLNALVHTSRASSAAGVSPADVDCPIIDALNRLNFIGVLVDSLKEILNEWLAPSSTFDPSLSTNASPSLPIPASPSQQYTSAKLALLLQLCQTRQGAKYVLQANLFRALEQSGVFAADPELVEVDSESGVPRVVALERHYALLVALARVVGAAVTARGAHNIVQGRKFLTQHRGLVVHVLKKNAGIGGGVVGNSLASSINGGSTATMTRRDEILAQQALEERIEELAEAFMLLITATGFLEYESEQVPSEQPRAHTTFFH

B1: Nup145N fragment (residues 606–683) (domain or fragment, Chaetomium thermophilum, UniProt G0SAK3 606-683, looked up)
chain: DDKIQNPGPLATPLSGKAKVKSRSILPMYKLSPANASRLVTTPQKRAYGFSFSAYGSPTSPSSSASSTPGAFGQSILS
Nup192
  binding result: binds

B2: Nup145N fragment (residues 606–750) (domain or fragment, Chaetomium thermophilum, UniProt G0SAK3 606-750, looked up)
chain: DDKIQNPGPLATPLSGKAKVKSRSILPMYKLSPANASRLVTTPQKRAYGFSFSAYGSPTSPSSSASSTPGAFGQSILSSSINRGLNKSISASNLRRSLNVEDSILQPGAFSANSSMRLLGGPGSHKKLVINKDMRTDLFSPPNKD
Nup188
  binding result: binds

B3: Nic96 fragment (residues 286–301) (peptide, UniProt G0S024 286-301, looked up)
chain: EWEAQRKRIYQHFGIK
Nup192
  binding result: binds

B4: Nic96 fragment (residues 274–301) (peptide, UniProt G0S024 274-301, looked up)
chain: DFDAFLEENVTLEWEAQRKRIYQHFGIK
Nup188
  binding result: binds
